In patent publication US20080050387A1, “Non-Androgen Dependent Roles for Androgen Receptor and Non-Androgen Related Inhibitors of Androgen Receptor” (priority 2003, published 2008):
“Also recorded” adds a separate entry of the source.

What was measured:
AR = AR transactivation reporter gene assay in H1299 cells with ARA67; assay type: cell-based, human
Experimental: (§1) H1299 and COS-1 cells were maintained in Dulbecco's modified Eagle's medium (DMEM) (Life Technologies, Inc.) supplemented with 10% heat inactivated fetal bovine serum (FBS). LNCap cells were maintained in RPMI 1640 supplemented with […]. All media contain 100 units penicillin, 100 μg/ml streptomycin and 2 mM L-glutamine. Cells were seeded to a density of 50-60% confluency for transfection. In transfections where H1299 and COS-1 cells were used, the calcium phosphate precipitation method was used as described (Pan H J, et al. 1999. Endocrine 11:321-327) unless otherwise noted. […] In other reporter gene assays, where ligand treatment was required, cell culture media were changed to DMEM containing 10% charcoal-dextran-stripped FBS (CD-FBS) 2 h before transfection. After 16-18 h transfection, cells were treated with medium containing either vehicle or ligands for another 20-24 h and then cells were harvested. With LNCap cells transfection, the cells were treated with fresh RPMI 1640 containing 10% CD-FBS before transfection with SuperFect performed according to the manufacturer's protocol (Qiagen). After transfection, cells were allowed to recover in fresh RPMI 1640 containing 10% CD-FBS for 8-12 h, and then treated with either vehicle or ligands for another 20-24 h before harvesting. Each experiment was repeated at least three times.

microtubules = conditions: in the presence of Mg-ATP; cited from earlier work
AR nuclear translocation = target: T1, AR nuclear translocation (Homo sapiens, UniProt P10275, DEL79-80/DUP473-473); experiment: Subcellular distribution of AR in COS-1 cells (immunofluorescence staining, subcellular fractionation); assay type: cell-based
T1 construct: expressed in transfected cells; host or cells: COS-1
T1 sequence (P10275 with tags, fused parts or gaps DEL79-80/DUP473-473): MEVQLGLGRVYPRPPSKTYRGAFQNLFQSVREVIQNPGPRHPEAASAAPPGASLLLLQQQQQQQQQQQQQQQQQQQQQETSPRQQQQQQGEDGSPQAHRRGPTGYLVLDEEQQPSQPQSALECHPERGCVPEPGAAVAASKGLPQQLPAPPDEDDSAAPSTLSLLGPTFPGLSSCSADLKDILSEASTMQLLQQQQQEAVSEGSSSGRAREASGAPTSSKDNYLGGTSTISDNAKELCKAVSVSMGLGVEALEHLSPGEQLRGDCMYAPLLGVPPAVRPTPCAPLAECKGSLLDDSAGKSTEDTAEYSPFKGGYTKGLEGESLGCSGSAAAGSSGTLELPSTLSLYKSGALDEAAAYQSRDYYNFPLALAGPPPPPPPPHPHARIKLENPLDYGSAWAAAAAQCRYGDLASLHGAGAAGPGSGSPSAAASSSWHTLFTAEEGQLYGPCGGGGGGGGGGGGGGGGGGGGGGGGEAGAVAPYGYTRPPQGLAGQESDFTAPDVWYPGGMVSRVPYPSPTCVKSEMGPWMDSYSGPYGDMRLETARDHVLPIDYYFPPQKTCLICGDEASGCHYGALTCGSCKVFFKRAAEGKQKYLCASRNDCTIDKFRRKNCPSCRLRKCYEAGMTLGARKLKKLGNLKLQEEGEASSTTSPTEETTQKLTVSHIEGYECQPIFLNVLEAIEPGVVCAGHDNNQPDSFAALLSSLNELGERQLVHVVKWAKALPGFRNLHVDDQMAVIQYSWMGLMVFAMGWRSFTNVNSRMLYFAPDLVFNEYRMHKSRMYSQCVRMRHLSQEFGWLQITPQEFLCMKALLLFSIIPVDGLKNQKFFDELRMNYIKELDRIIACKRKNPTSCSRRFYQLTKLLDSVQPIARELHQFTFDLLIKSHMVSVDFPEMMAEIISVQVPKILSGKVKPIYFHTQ
Experimental: COS-1 cells were seeded on two-well Lab Tek Chamber slides (Nalge) in DMEM containing 10% CD-FBS 18 h before transfection. DNA was transfected by using FuGENE 6 Transfection Reagent (Boehringer Mannheim). After transfection, cells were treated with either 10 nM DHT or vehicle for 12 h. Then cells were fixed with fixation solution (3% paraformaldehyde and 10% sucrose in PBS) for 20 min on ice, followed by permeabilization with methanol for 10 min on ice. Slides were washed and blocked with 2% BSA in PBS for 15 min at room temperature. Then the cells were stained with 1 μg/ml rabbit polyclonal anti-AR antibody (NH27) and 1 μg/ml mouse monoclonal anti-His antibody (Santa Cruz Biotechnology) sequentially at room temperature for 1 h each. After each first Ab incubation, cells were washed and incubated with TexRed-conjugated goat anti-rabbit IgG and FITC-conjugated goat anti-mouse IgG (ICN), respectively. Stained slides were washed and mounted (Vectashield; Vector Laboratories). Fluorescence images were photographed under 400-fold magnification with a confocal microscope.
To prepare cytosolic and nuclear fractions of cells, cell monolayers were harvested with ice-cold PBS and pelleted. Cold buffer A (10 mM HEPES-KOH/pH 7.9 at 4° C., 1.5 mM MgCl2, 10 mM KCl, 0.5 mM dithiothreitol, 0.2 mM PMSF) equal to 5 times cell volume was used to resuspend the cells. […]

ER = ER transactivation reporter gene assay in H1299 cells with ARA67; assay type: cell-based; conditions: 500 ng pSG5-ARA67, ERE-Luc, cognate ligand
Experimental: as §1

B1: ARA67: AR N-terminal interacting protein of 585 amino acids (SEQ ID NO:1), matches PAT1; functions as a repressor of AR (protein)
chain: MAAVELEWIPETLYNTAISAVVDNYIRSRRDIRSLPENIQFDVYYKLYQQGRLCQLGSEFCELEVFAKVLRALDKRHLLHHCFQALMDHGVKVASVLAYSFSRRCSYIAESDAAVKEKAIQVGFVLGGFLSDAGWYSDAEKVFLSCLQLCTLHDEMLHWFRAVECCVRLLHVRNGNCKYHLGEETFKLAQTYMDKLSKHGQQANKAALYGELCALLFAKSHYDEAYKWCIEAMKEITAGLPVKVVVDVLRQASKACVVKREFKKAEQLIKHAVYLARDHFGSKHPKYSDTLLDYGFYLLNVDNICQSVAIYQAALDIRQSVFGGKNIHVATAHEDLAYSSYVHQYSSGKFDNALFHAERAIGIITHILPEDHLLLASSKRVKALILEEIAIDCHNKETEQRLLQEAHDLHLSSLQLAKKAFGEFNVQTAKHYGNLGRLYQSMRKFKEAEEMHIKAIQIKEQLLGQEDYEVALSVGHLASLYNYDMNQYENAEKLYLRSIAIGKKLFGEGYSGLEYDYRGLIKLYNSIGNYEKVFEYHNVLSNWNRLRDRQYSVTDALEDVSTSPQSTEEVVQSFLISQNVEGPSC
With B1 as the molecule, how does the “repression of AR activity relative to PR activity” value (AR) read?
Its value is “approximately 2.5 times”.

And the “suppression on AR activity” value (AR; H1299 cells, 500 ng pSG5-ARA67, MMTV-Luc, cognate ligand)?
Its value is 50%.

And the “DHT-induced AR transactivation” value (AR; H1299 cells, MMTV-Luc and ARE4-Luc, 10 nM DHT)?
Its value is “suppressed”.

And the “ARA70N enhanced AR transactivation” value (AR; H1299 cells, PSA-Luc and ARE4-Luc, 10 nM DHT)?
The value was “repressed dose-dependently”.

What about the “enhancement of microtubule binding” value (microtubules) of the same molecule?
Its value is 5-10 fold.

What about the “AR level in nuclear fraction” value (AR nuclear translocation; Western blot, after DHT treatment) of the same molecule?
The value was “decreased”.

And the “nuclear translocation of AR” value (AR nuclear translocation; immunofluorescence staining, DHT treatment)?
The value was “block the nuclear translocation”.

What about the “effect on ER transactivation” value (ER) of the same molecule?
Its value is “nearly unaffected; also recorded: little effect”.
